Experimental data taken from patent publication US20050084493A1 (Amgen, published 2005).

B1: MAB201 murine monoclonal anti-IL-1β antibody (R&D Systems) (antibody, V domains shown)
VH: QVTLKESGPGILKPSQTLSLTCSFSGFSLSTSGMGVGWIRQPSGKGLEWLAHIWWDGDESYNPSLKTRLTISKNTSRNQVFLKITTVDTVDTATYFCARNRYDPPWFVDWGQGTLVTVSS
VL: DIQMTQTTSSLSASLGDRVTISCRASQDISNYLSWYQQKPDGTVKLLIYYTSKLHSGVPSRFSGSGSGTDYFLTISNLEQEDIATYFCLQGKMLPWTFGGGTKLEIK
notes: Commercial murine monoclonal; light chain is kappa; also called Mouse; mouse monoclonal MAB201

Columns and labels:
[1] = molecular target: IL-1 receptor type I (IL-1R1) on SW982 synoviocytes / HUVEC (human) (UniProt P14778); experiment: cell-based or functional assay
IL-1β [2] = molecular target: T1, IL-1β (Homo sapiens (Human), UniProt P01584 117-269); experiment: ECL (Origen) competition of complex formation: antibody titrated against biotinylated sIL-1 receptor (1 nM), IL-1β (1 nM), ruthenium-tagged IL-1RacP (5 nM)
T1 construct: also called IL-1 beta; IL-1b
Description: The resulting complexes were captured using magnetic streptavidin-coated beads and an Origen® Analyzer (IGEN Inc.) measured an ECL signal proportional to the ruthenium tag captured in the complex to evaluate competition of complex formation.
After a 1-hour incubation, the resulting complexes were captured using magnetic streptavidin-coated beads. Competition of complex formation was evaluated using an Origen® Analyzer (IGEN Inc.), which measures an ECL signal proportional to the ruthenium tag captured in the complex.

IL-1β [3] = molecular target: T1, IL-1β; experiment: cell-based or functional assay

Chain of IL-1 receptor type I (IL-1R1) on SW982 synoviocytes / HUVEC (human) (P14778 18-569): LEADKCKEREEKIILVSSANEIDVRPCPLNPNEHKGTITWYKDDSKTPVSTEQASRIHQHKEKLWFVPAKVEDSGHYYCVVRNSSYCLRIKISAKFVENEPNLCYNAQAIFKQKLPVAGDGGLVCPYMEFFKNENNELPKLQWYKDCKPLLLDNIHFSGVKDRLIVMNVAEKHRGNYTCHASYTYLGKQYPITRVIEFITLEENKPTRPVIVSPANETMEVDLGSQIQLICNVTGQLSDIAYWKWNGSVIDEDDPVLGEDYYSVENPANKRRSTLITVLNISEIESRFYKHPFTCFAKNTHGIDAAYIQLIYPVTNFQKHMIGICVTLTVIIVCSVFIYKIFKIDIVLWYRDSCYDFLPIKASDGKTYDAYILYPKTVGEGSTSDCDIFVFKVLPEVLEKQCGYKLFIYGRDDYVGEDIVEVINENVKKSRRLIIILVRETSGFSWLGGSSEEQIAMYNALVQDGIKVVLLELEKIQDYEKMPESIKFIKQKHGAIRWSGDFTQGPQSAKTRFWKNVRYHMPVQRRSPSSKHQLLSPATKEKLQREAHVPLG

| Molecule | IC50 (pM), IL-1β-dependent GROα production in HUVEC [1] | IC50 (IL-1β [2]) | IC50 (pM), IL-1β-dependent GROα production in HUVEC (IL-1β [3]) |
| --- | --- | --- | --- |
| IL-1ra (from UniProt P18510 26-177) (ligand) | 2930 pM |  |  |
| B1 |  | 0.476 nM | 171 pM |
